Laboratory results: patent US20050266004A1 (published 2005)

Tests used:
[1] = molecular target: T1, recombinant human lymphotoxin alpha (rhuLTα) (human, UniProt P01374 35-205); experiment: cell-based or functional assay
T1 sequence (looked up): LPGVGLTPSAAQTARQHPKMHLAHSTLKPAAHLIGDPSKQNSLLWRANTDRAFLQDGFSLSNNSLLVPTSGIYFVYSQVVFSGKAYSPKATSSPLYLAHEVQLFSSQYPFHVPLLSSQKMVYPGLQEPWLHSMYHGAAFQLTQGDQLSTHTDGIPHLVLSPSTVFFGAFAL

[2] = molecular target: T1, recombinant human lymphotoxin alpha …; experiment: SPR; Mab captured on immobilized anti-murine Fc antibody, rhuLTα in solution
Experimental: The affinity of anti-human LTα Mabs for rhuLTα was determined using surface plasmon resonance technology. The murine Mabs were first captured on chips that contained immobilized polyclonal anti-murine Fc antibody. Buffer containing rhuLTα was then passed over the captured Mab molecules and the resulting change in the mass bound over time was recorded.

human TNFα = molecular target: T2, human TNFα (human, UniProt P01375 77-233); experiment: EIA, recombinant protein coated at 1 µg/mL
T2 construct: Coated as recombinant protein in the EIA
T2 sequence (P01375 77-233 limits assumed): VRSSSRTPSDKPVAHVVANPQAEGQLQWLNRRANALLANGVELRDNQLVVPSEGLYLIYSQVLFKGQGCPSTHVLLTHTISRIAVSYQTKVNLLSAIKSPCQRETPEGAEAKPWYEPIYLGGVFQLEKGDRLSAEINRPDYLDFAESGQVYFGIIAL
Experimental: (§1) Enzyme immunoassays (EIAs) were used to test hybridoma cell supernatants for the presence of murine anti-LTα Mabs. Briefly, plates were coated with rhuLTα at 10 μg/mL in PBS overnight. After washing in 0.15 M saline containing 0.02% (v/v) Tween 20, the wells were blocked with 1% (w/v) BSA in PBS for 1 hour at RT. Undiluted hybridoma supernatants were incubated on the plates for one hour at 37° C. The plates were washed and probed with HRP-conjugated goat anti-mouse IgG Fc specific antibody for one hour at 37° C. The plates were again washed and citrate-phosphate substrate solution (0.1 M citric acid and 0.2 M sodium phosphate, 0.01% H₂O₂ and 1 mg/mL OPD) was added for 15 minutes at RT. Stop solution (4N sulfuric acid) was then added and the OD's were read at 490 nm using an automated plate spectrophotometer. The anti-human LTα Mabs were assessed for their ability to cross-react with murine LTα or human TNFα. The recombinant proteins were coated on EIA plates at 1 μg/mL in the same manner described above. Purified Mabs were incubated on the plates in serial dilutions starting at […] for 1 hour at 37° C. The plates were washed, probed and processed as above. […] Eight different hybridoma clones that secrete a murine IgG1 κ Mab specifically binds to rhuLTα.

murine LTα = molecular target: T3, murine LTα (murine, UniProt P09225 34-202, limits assumed); experiment: EIA, recombinant protein coated at 1 µg/mL
T3 construct: Coated as recombinant protein in the EIA; used as 'murine LTα lysates' in the WEHI assay; also called murine LTα lysates
T3 sequence (looked up): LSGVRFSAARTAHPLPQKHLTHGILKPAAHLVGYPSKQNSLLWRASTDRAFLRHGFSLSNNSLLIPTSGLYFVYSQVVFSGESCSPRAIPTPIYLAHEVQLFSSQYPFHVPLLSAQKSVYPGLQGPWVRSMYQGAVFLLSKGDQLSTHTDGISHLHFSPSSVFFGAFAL
Experimental: as §1

B1: murine anti-human LTα Mab 4 (antibody, V domains shown)
VH: PGLVAPAQSLSITCTVSGFSLTSYGVHWVRQPPGKGLEWLGVIWAGGNTNYNSPLMSRLRIIKDNSKSQVFLKMNSLQADDTAMYYCVSHDVNNPFGYWGQGTLVTVSA
VL: DIQMTQTTSSLSASLGDRVTISCRASQDITNYLNWYQQKPDGTVKLLIYYTSRLHSGVPSRFSGSGSGTDYSLTISNLEQEDIATYFCQQGNTLPYTFGGGTRLEIK
notes: Tested as the murine IgG1 kappa hybridoma Mab; also called Mab number 4
In the case of B1, the “IC50, inhibition of LTα-mediated WEHI 164 cell cytotoxicity, rhuLTα at 10 ng/mL” value [1] is reported as 6.2 µg/mL, the “IC50, inhibition of WEHI 164 cell cytotoxicity, rhuLTα at 0.1 ng/mL” value [1] is reported as 0.54 µg/mL and the “normalized molar ratio of Mab to rhuLTα at the IC50 value, rhuLTα at 0.1 ng/mL” value [1] is reported as 1800 molar ratio Mab:rhuLTα. For the same binder, the Kd [2] was 1.1 nM, the binding result (human TNFα) was “no binding (tested: serial dilutions starting at 25 µg/nL)” and the binding result (murine LTα) was “no binding (tested: serial dilutions starting at 25 µg/nL)”.
